{"source": "patent US20220153847A1", "about": "(Chugai, published 2022)", "binders": {"B1": {"name": "DQN0344xx//IC17 (bispecific antibody, human IgG1, kappa)", "heavy 1": "QSLEESGGGLVKPGGTLTLTCTASGFSFSSSYWMCWVRQAPGKGLEWVACVYGGSDTTYYASWTKGRFTISKGSSTTVALQVTSLTAADTATYFCARDPLNYYYYGELNLWGPGTLVTVSSASTKGPSVFPLAPSSKSTSGGTAALGCLVKDYFPEPVTVSWNSGALTSGVHTFPAVLQSSGLYSLSSVVTVPSSSLGTQTYICNVNHKPSNTKVDKRVEPKSCDKTHTCPPCPAPELRRGPSVFLFPPKPKDTLMISRTPEVTCVVVDVSHEDPEVKFNWYVDGVEVHNAKTKPREEQYNSTYRVVSVLTVLHQDWLNGKEYKCKVSNKALPAPIEKTISKAKGQPREPQVYTLPPSREEMTKNQVSLTCLVKGFYPSDIAVEWESNGQPENNYKTTPPYLDSDGSFFLYSKLTVDKSRWQQGNVFSCSVMHEALHNHYTQESLSLSP", "light 1": "AVVLTQTASPVSAAVGGTVTIRCQATENIYSGLAWYQQKPGQPPKVLIYYVSTLASGVPSRFKGSGSGTEYTLTISGVQCDDAATYYCQTYHDISNVTFGGGTKVEIKRTVAAPSVFIFPPSDEQLKSGTASVVCLLNNFYPREAKVQWKVDNALQSGNSQESVTEQDSKDCTYSLSSTLTLSKADYEKHKVYACEVTHQGLSSPVTKSFNRGEC", "heavy 2": "QVQLQQSGPQLVRPGASVKISCKASGYSFTSYWMHWVNQRPGQGLEWIGMIDPSYSETRLNQKFKDKATLTVDKSSSTAYMQLSSPTSEDSAVYYCALYGNYFDYWGQGTTLTVSSASTKGPSVFPLAPSSKSTSGGTAALGCLVKDYFPEPVTVSWNSGALTSGVHTFPAVLQSSGLYSLSSVVTVPSSSLGTQTYICNVNHKPSNTKVDKRVEPKSCDKTHTCPPCPAPELRRGPSVFLFPPKPKDTLMISRTPEVTCVVVDVSHEDPEVKFNWYVDGVEVHNAKTKPREEQYNSTYRVVSVLTVLHQDWLNGKEYKCKVSNKALPAPIEKTISKAKGQPREPQVYTLPPSRKEMTKNQVSLTCLVKGFYPSDIAVEWESNGQPENNYKTTPPYLDSDGSFFLYSKLTVDKSRWQQGNVFSCSVMHEALHNHYTQKSLSLSP", "light 2": "DIQMTQSSSSFSVSLGDRVTITCKASEDIYNRLAWYQQKPGNAPRLLISGATSLETGVPSRFSGSGSGKDYTLSITSLQTEDVATYYCQQYWSTPYTFGGGTKLEVKRTVAAPSVFIFPPSDEQLKSGTASVVCLLNNFYPREAKVQWKVDNALQSGNSQESVTEQDSKDSTYSLSSTLTLSKADYEKHKVYACEVTHQGLSSPVTKSFNRGEC"}}, "key": {"[1]": {"target": "T1, HLA-DQ2.5 on HLA-DQ2.5-positive PBMC B cells (human, UniProt P01909 24-254; P01920 33-261)", "T1 construct": "whole, on cells; also called HLA-DQ2.5+ PBMC B cell", "T1 MHC II alpha": "not shown", "T1 MHC II beta": "not shown", "assay": "FACS, PBMC B cells; IC17=0%, DQN0139bb//IC17=100%"}, "[2]": {"target": "T2, HLA-DQ2.5/BC hordein peptide complex on Ba/F3 cells (human)", "T2 construct": "whole, on cells; also called Ba/F3-HLA-DQ2.5/BC hordein", "assay": "FACS, Ba/F3 cells; IC17=0%, DQN0139bb//IC17=100%;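 note: flow cytometry binding of anti-HLA-DQ antibodies at 5 µg/mL, incubated 30 min at room temperature with Ba/F3 lines presenting HLA-DQ/peptide complexes; antibody tested at 5 microgram/mL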"}, "[3]": {"target": "T3, HLA-DQ2.5/26mer gliadin peptide complex on Ba/F3 cells (human)", "T3 construct": "whole, on cells; also called Ba/F3-HLA-DQ2.5/26mer gliadin", "assay": "FACS, Ba/F3 cells; IC17=0%, DQN0139bb//IC17=100%"}, "[4]": {"target": "T4, HLA-DQ2.5/omega 2 gliadin peptide complex on Ba/F3 cells (human)", "T4 construct": "whole, on cells; also called Ba/F3-HLA-DQ2.5/omega 2 gliadin; HLA-DQ2.5/w2 gliadin", "assay": "FACS, Ba/F3 cells; IC17=0%, DQN0139bb//IC17=100%"}, "[5]": {"target": "T5, HLA-DQ2.5/hordein 2 peptide complex on Ba/F3 cells (human)", "T5 construct": "whole, on cells; also called Ba/F3-HLA-DQ2.5/hordein 2", "assay": "FACS, Ba/F3 cells; IC17=0%, DQN0139bb//IC17=100%"}, "[6]": {"target": "T6, HLA-DQ2.5/hordein 1 peptide complex on Ba/F3 cells (human)", "T6 construct": "whole, on cells; also called Ba/F3-HLA-DQ2.5/hordein 1", "assay": "FACS, Ba/F3 cells; IC17=0%, DQN0139bb//IC17=100%"}, "[7]": {"target": "T7, HLA-DQ2.5/avenin 2 peptide complex on Ba/F3 cells (human)", "T7 construct": "whole, on cells; also called Ba/F3-HLA-DQ2.5/avenin 2", "assay": "FACS, Ba/F3 cells; IC17=0%, DQN0139bb//IC17=100%"}, "[8]": {"target": "T8, HLA-DQ2.5/avenin 1 peptide complex on Ba/F3 cells (human)", "T8 construct": "whole, on cells; also called Ba/F3-HLA-DQ2.5/avenin 1", "assay": "FACS, Ba/F3 cells; IC17=0%, DQN0139bb//IC17=100%"}, "[9]": {"target": "T9, HLA-DQ2.5/alpha 1 gliadin peptide complex on Ba/F3 cells (human)", "T9 construct": "whole, on cells; also called Ba/F3-HLA-DQ2.5/alpha 1 gliadin; HLA-DQ2.5/a1 gliadin", "assay": "FACS, Ba/F3 cells; IC17=0%, DQN0139bb//IC17=100%"}, "[10]": {"target": "T10, HLA-DQ2.5/33mer gliadin peptide complex on Ba/F3 cells (human)", "T10 construct": "whole, on cells; also called Ba/F3-HLA-DQ2.5/33mer gliadin", "assay": "FACS, Ba/F3 cells; IC17=0%, DQN0139bb//IC17=100%"}, "[11]": {"target": "T11, HLA-DQ2.5/omega 1 gliadin peptide complex on Ba/F3 cells (human)", "T11 construct": "whole, on cells; also called Ba/F3-HLA-DQ2.5/omega 1 gliadin; HLA-DQ2.5/w1 gliadin", "assay": "FACS, Ba/F3 cells; IC17=0%, DQN0139bb//IC17=100%"}, "[12]": {"target": "T12, HLA-DQ2.5/alpha 1b gliadin peptide complex on Ba/F3 cells (human)", "T12 construct": "whole, on cells; also called Ba/F3-HLA-DQ2.5/alpha 1b gliadin; HLA-DQ2.5/a1b gliadin", "assay": "FACS, Ba/F3 cells; IC17=0%, DQN0139bb//IC17=100%"}, "[13]": {"target": "T13, HLA-DQ2.5/alpha 2 gliadin peptide complex on Ba/F3 cells (human)", "T13 construct": "whole, on cells; also called Ba/F3-HLA-DQ2.5/alpha 2 gliadin; HLA-DQ2.5/a2 gliadin", "assay": "FACS, Ba/F3 cells; IC17=0%, DQN0139bb//IC17=100%"}, "[14]": {"target": "T14, HLA-DQ2.5/secalin 2 peptide complex on Ba/F3 cells (human)", "T14 construct": "whole, on cells; also called Ba/F3-HLA-DQ2.5/secalin 2", "assay": "FACS, Ba/F3 cells; IC17=0%, DQN0139bb//IC17=100%"}, "[15]": {"target": "T15, HLA-DQ2.5/alpha 3 gliadin peptide complex on Ba/F3 cells (human)", "T15 construct": "whole, on cells; also called Ba/F3-HLA-DQ2.5/alpha 3 gliadin; HLA-DQ2.5/a3 gliadin", "assay": "FACS, Ba/F3 cells; IC17=0%, DQN0139bb//IC17=100%"}, "[16]": {"target": "T16, HLA-DQ2.5/avenin 3 peptide complex on Ba/F3 cells (human)", "T16 construct": "whole, on cells; also called Ba/F3-HLA-DQ2.5/avenin 3", "assay": "FACS, Ba/F3 cells; IC17=0%, DQN0139bb//IC17=100%"}, "HLA-DQ7.5 on Ba/F3 cells": {"target": "T17, HLA-DQ7.5 on Ba/F3 cells (human, UniProt P01909 24-216; P01920 33-230, limits assumed)", "T17 construct": "whole, on cells; also called Ba/F3-HLA-DQ7.5", "T17 sequence (P01920 33-230 limits assumed, chain 2 of 4, other chains not shown)": "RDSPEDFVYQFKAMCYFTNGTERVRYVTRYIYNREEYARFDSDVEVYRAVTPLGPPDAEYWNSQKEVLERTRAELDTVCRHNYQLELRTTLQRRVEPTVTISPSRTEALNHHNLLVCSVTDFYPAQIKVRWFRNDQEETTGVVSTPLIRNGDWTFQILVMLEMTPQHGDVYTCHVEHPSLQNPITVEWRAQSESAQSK", "assay": "FACS, Ba/F3 cells; IC17=0%, DQN0139bb//IC17=100%"}, "[17]": {"target": "T18, HLA-DQ2.5/Thyroperoxidase peptide complex on Ba/F3 cells (human)", "T18 construct": "whole, on cells; also called Ba/F3-HLA-DQ2.5/TPO; HLA-DQ2.5/TPO", "assay": "FACS, Ba/F3 cells; IC17=0%, DQN0139bb//IC17=100%"}, "[18]": {"target": "T19, HLA-DQ2.5/gamma 2 gliadin peptide complex on Ba/F3 cells (human)", "T19 construct": "whole, on cells; also called Ba/F3-HLA-DQ2.5/gamma 2 gliadin; HLA-DQ2.5/g2 gliadin", "assay": "FACS, Ba/F3 cells; IC17=0%, DQN0139bb//IC17=100%"}, "[19]": {"target": "T20, HLA-DQ2.5/secalin 1 peptide complex on Ba/F3 cells (human)", "T20 construct": "whole, on cells; also called Ba/F3-HLA-DQ2.5/secalin 1", "assay": "FACS, Ba/F3 cells; IC17=0%, DQN0139bb//IC17=100%"}, "[20]": {"target": "T21, HLA-DQ2.5/CLIP peptide complex on Ba/F3 cells (human)", "T21 construct": "whole, on cells; also called Ba/F3-HLA-DQ2.5/CLIP", "T21 sequence (P04233 96-124, chain 2 of 2, other chains not shown)": "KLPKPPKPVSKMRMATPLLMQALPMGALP", "assay": "FACS, Ba/F3 cells; IC17=0%, DQN0139bb//IC17=100%"}, "[21]": {"target": "T22, HLA-DQ2.5/14mer 1 peptide complex on Ba/F3 cells (human)", "T22 construct": "whole, on cells; also called Ba/F3-HLA-DQ2.5/14mer 1", "assay": "FACS, Ba/F3 cells; IC17=0%, DQN0139bb//IC17=100%"}, "[22]": {"target": "T23, HLA-DQ2.5/gamma 1 gliadin peptide complex on Ba/F3 cells (human)", "T23 construct": "whole, on cells; also called Ba/F3-HLA-DQ2.5/gamma 1 gliadin; HLA-DQ2.5/g1 gliadin", "assay": "FACS, Ba/F3 cells; IC17=0%, DQN0139bb//IC17=100%"}, "HLA-DQ8 on Ba/F3 cells": {"target": "T24, HLA-DQ8 on Ba/F3 cells (human, UniProt P01909 24-216; P01920 33-230, limits assumed)", "T24 construct": "whole, on cells; also called Ba/F3-HLA-DQ8", "T24 MHC II alpha": "not shown", "T24 MHC II beta": "not shown", "assay": "FACS, Ba/F3 cells; IC17=0%, DQN0139bb//IC17=100%"}, "[23]": {"target": "HLA-DQ2.5/33mer gliadin peptide on IHW9088 cells (human)", "assay": "cell-based or functional assay"}}}
{"binder": "B1", "values": [{"measurement": "% MFI", "setting": "[1]", "value": 0, "unit": "%"}, {"measurement": "% MFI", "setting": "[2]", "value": 0, "unit": "%"}, {"measurement": "% MFI", "setting": "[3]", "value": 0.2, "unit": "%"}, {"measurement": "% MFI", "setting": "[4]", "value": 0.2, "unit": "%"}, {"measurement": "% MFI", "setting": "[5]", "value": 0, "unit": "%"}, {"measurement": "% MFI", "setting": "[6]", "value": 11.9, "unit": "%"}, {"measurement": "% MFI", "setting": "[7]", "value": 16.8, "unit": "%"}, {"measurement": "% MFI", "setting": "[8]", "value": 20.7, "unit": "%"}, {"measurement": "% MFI", "setting": "[9]", "value": 60.1, "unit": "%"}, {"measurement": "% MFI", "setting": "[10]", "value": 99.1, "unit": "%"}, {"measurement": "% MFI", "setting": "[11]", "value": 37.5, "unit": "%"}, {"measurement": "% MFI", "setting": "[12]", "value": 72.2, "unit": "%"}, {"measurement": "% MFI", "setting": "[13]", "value": 90.4, "unit": "%"}, {"measurement": "% MFI", "setting": "[14]", "value": 26.5, "unit": "%"}, {"measurement": "% MFI", "setting": "[15]", "value": 14.6, "unit": "%"}, {"measurement": "% MFI", "setting": "[16]", "value": 17.8, "unit": "%"}, {"measurement": "% MFI", "setting": "HLA-DQ7.5 on Ba/F3 cells", "value": 0, "unit": "%"}, {"measurement": "% MFI", "setting": "[17]", "value": 0, "unit": "%"}, {"measurement": "% MFI", "setting": "[18]", "value": 0.2, "unit": "%"}, {"measurement": "% MFI", "setting": "[19]", "value": 31.6, "unit": "%"}, {"measurement": "% MFI", "setting": "[20]", "value": 0, "unit": "%"}, {"measurement": "% MFI", "setting": "[21]", "value": 0, "unit": "%"}, {"measurement": "% MFI", "setting": "[22]", "value": 0.2, "unit": "%"}, {"measurement": "% MFI", "setting": "HLA-DQ8 on Ba/F3 cells", "value": 0, "unit": "%"}, {"measurement": "IC50 (read off the curve)", "setting": "[23]", "value": "~0.2", "unit": "microgram/mL"}]}
